Numbered stars: 1 amine (or outer) side, 2 acyl side, 3 side chain; on linkers, the order of the positions; unused ones are H or OH. Bridge positions count the residues as written; N and C are the ends. Side chains are listed from the residue outwards. Ends that are not written are not given here. * marks the point of attachment. C20 diacid = O=C(O)CCCCCCCCCCCCCCCCCCC(=O)*; γGlu = O=C(O)[C@H](CCC(=O)[*:2])N[*:1]
B1: N^ε1-[(4S)-4-carboxy-4-(19-carboxynonadecanoylamino)butanoyl]-[Glu14,Arg17,Pro21,Pro27,Arg34,Glu35]-h-amylin (peptide)
peptide: K([γGlu-C20 diacid])CNTATCATQRLAEFLRHSSPNFGAIPSSTNVGRETY-NH2
modifications: disulfide 2-7; N-terminus assumed
SMILES: CC[C@H](C)[C@H](NC(=O)[C@H](C)NC(=O)CNC(=O)[C@H](Cc1ccccc1)NC(=O)[C@H](CC(N)=O)NC(=O)[C@@H]1CCCN1C(=O)[C@H](CO)NC(=O)[C@H](CO)NC(=O)[C@H](Cc1c[nH]cn1)NC(=O)[C@H](CCCNC(=N)N)NC(=O)[C@H](CC(C)C)NC(=O)[C@H](Cc1ccccc1)NC(=O)[C@H](CCC(=O)O)NC(=O)[C@H](C)NC(=O)[C@H](CC(C)C)NC(=O)[C@H](CCCNC(=N)N)NC(=O)[C@H](CCC(N)=O)NC(=O)[C@@H](NC(=O)[C@H](C)NC(=O)[C@@H]1CSSC[C@H](NC(=O)[C@@H](N)CCCCNC(=O)CC[C@H](NC(=O)CCCCCCCCCCCCCCCCCCC(=O)O)C(=O)O)C(=O)N[C@@H](CC(N)=O)C(=O)N[C@@H]([C@@H](C)O)C(=O)N[C@@H](C)C(=O)N[C@@H]([C@@H](C)O)C(=O)N1)[C@@H](C)O)C(=O)N1CCC[C@H]1C(=O)N[C@@H](CO)C(=O)N[C@@H](CO)C(=O)N[C@H](C(=O)N[C@@H](CC(N)=O)C(=O)N[C@H](C(=O)NCC(=O)N[C@@H](CCCNC(=N)N)C(=O)N[C@@H](CCC(=O)O)C(=O)N[C@H](C(=O)N[C@@H](Cc1ccc(O)cc1)C(N)=O)[C@@H](C)O)C(C)C)[C@@H](C)O
notes: modifications are with respect to human amylin
B2: N^ε1-[(4S)-4-carboxy-4-(19-carboxynonadecanoylamino)butanoyl]-[His14,Arg17,Pro21,Pro27,Pro31,Pro34]-h-amylin (peptide)
peptide: K([γGlu-C20 diacid])CNTATCATQRLAHFLRHSSPNFGAIPSSTPVGPNTY-NH2
modifications: disulfide 2-7; N-terminus assumed
SMILES: CC[C@H](C)[C@H](NC(=O)[C@H](C)NC(=O)CNC(=O)[C@H](Cc1ccccc1)NC(=O)[C@H](CC(N)=O)NC(=O)[C@@H]1CCCN1C(=O)[C@H](CO)NC(=O)[C@H](CO)NC(=O)[C@H](Cc1c[nH]cn1)NC(=O)[C@H](CCCNC(=N)N)NC(=O)[C@H](CC(C)C)NC(=O)[C@H](Cc1ccccc1)NC(=O)[C@H](Cc1c[nH]cn1)NC(=O)[C@H](C)NC(=O)[C@H](CC(C)C)NC(=O)[C@H](CCCNC(=N)N)NC(=O)[C@H](CCC(N)=O)NC(=O)[C@@H](NC(=O)[C@H](C)NC(=O)[C@@H]1CSSC[C@H](NC(=O)[C@@H](N)CCCCNC(=O)CC[C@H](NC(=O)CCCCCCCCCCCCCCCCCCC(=O)O)C(=O)O)C(=O)N[C@@H](CC(N)=O)C(=O)N[C@@H]([C@@H](C)O)C(=O)N[C@@H](C)C(=O)N[C@@H]([C@@H](C)O)C(=O)N1)[C@@H](C)O)C(=O)N1CCC[C@H]1C(=O)N[C@@H](CO)C(=O)N[C@@H](CO)C(=O)N[C@H](C(=O)N1CCC[C@H]1C(=O)N[C@H](C(=O)NCC(=O)N1CCC[C@H]1C(=O)N[C@@H](CC(N)=O)C(=O)N[C@H](C(=O)N[C@@H](Cc1ccc(O)cc1)C(N)=O)[C@@H](C)O)C(C)C)[C@@H](C)O
notes: as for B1
B3: N^ε1-[(4S)-4-carboxy-4-(19-carboxynonadecanoylamino)butanoyl]-[Glu14,Arg17,Pro21,Pro27,His34,Glu35]-h-amylin (peptide)
peptide: K([γGlu-C20 diacid])CNTATCATQRLAEFLRHSSPNFGAIPSSTNVGHETY-NH2
modifications: disulfide 2-7; N-terminus assumed
SMILES: CC[C@H](C)[C@H](NC(=O)[C@H](C)NC(=O)CNC(=O)[C@H](Cc1ccccc1)NC(=O)[C@H](CC(N)=O)NC(=O)[C@@H]1CCCN1C(=O)[C@H](CO)NC(=O)[C@H](CO)NC(=O)[C@H](Cc1c[nH]cn1)NC(=O)[C@H](CCCNC(=N)N)NC(=O)[C@H](CC(C)C)NC(=O)[C@H](Cc1ccccc1)NC(=O)[C@H](CCC(=O)O)NC(=O)[C@H](C)NC(=O)[C@H](CC(C)C)NC(=O)[C@H](CCCNC(=N)N)NC(=O)[C@H](CCC(N)=O)NC(=O)[C@@H](NC(=O)[C@H](C)NC(=O)[C@@H]1CSSC[C@H](NC(=O)[C@@H](N)CCCCNC(=O)CC[C@H](NC(=O)CCCCCCCCCCCCCCCCCCC(=O)O)C(=O)O)C(=O)N[C@@H](CC(N)=O)C(=O)N[C@@H]([C@@H](C)O)C(=O)N[C@@H](C)C(=O)N[C@@H]([C@@H](C)O)C(=O)N1)[C@@H](C)O)C(=O)N1CCC[C@H]1C(=O)N[C@@H](CO)C(=O)N[C@@H](CO)C(=O)N[C@H](C(=O)N[C@@H](CC(N)=O)C(=O)N[C@H](C(=O)NCC(=O)N[C@@H](Cc1c[nH]cn1)C(=O)N[C@@H](CCC(=O)O)C(=O)N[C@H](C(=O)N[C@@H](Cc1ccc(O)cc1)C(N)=O)[C@@H](C)O)C(C)C)[C@@H](C)O
notes: modifications are with respect to human amylin; also called compound 107
B4: N^ε1-[(4S)-4-carboxy-4-(19-carboxynonadecanoylamino)butanoyl]-[Glu14,Arg17,Pro21,Pro27,Pro34,Arg35]-h-amylin (peptide)
peptide: K([γGlu-C20 diacid])CNTATCATQRLAEFLRHSSPNFGAIPSSTNVGPRTY-NH2
modifications: disulfide 2-7; N-terminus assumed
SMILES: CC[C@H](C)[C@H](NC(=O)[C@H](C)NC(=O)CNC(=O)[C@H](Cc1ccccc1)NC(=O)[C@H](CC(N)=O)NC(=O)[C@@H]1CCCN1C(=O)[C@H](CO)NC(=O)[C@H](CO)NC(=O)[C@H](Cc1c[nH]cn1)NC(=O)[C@H](CCCNC(=N)N)NC(=O)[C@H](CC(C)C)NC(=O)[C@H](Cc1ccccc1)NC(=O)[C@H](CCC(=O)O)NC(=O)[C@H](C)NC(=O)[C@H](CC(C)C)NC(=O)[C@H](CCCNC(=N)N)NC(=O)[C@H](CCC(N)=O)NC(=O)[C@@H](NC(=O)[C@H](C)NC(=O)[C@@H]1CSSC[C@H](NC(=O)[C@@H](N)CCCCNC(=O)CC[C@H](NC(=O)CCCCCCCCCCCCCCCCCCC(=O)O)C(=O)O)C(=O)N[C@@H](CC(N)=O)C(=O)N[C@@H]([C@@H](C)O)C(=O)N[C@@H](C)C(=O)N[C@@H]([C@@H](C)O)C(=O)N1)[C@@H](C)O)C(=O)N1CCC[C@H]1C(=O)N[C@@H](CO)C(=O)N[C@@H](CO)C(=O)N[C@H](C(=O)N[C@@H](CC(N)=O)C(=O)N[C@H](C(=O)NCC(=O)N1CCC[C@H]1C(=O)N[C@@H](CCCNC(=N)N)C(=O)N[C@H](C(=O)N[C@@H](Cc1ccc(O)cc1)C(N)=O)[C@@H](C)O)C(C)C)[C@@H](C)O
notes: as for B1
B5: N^ε1-[(4S)-4-carboxy-4-(19-carboxynonadecanoylamino)butanoyl]-[Glu14,Arg17,Pro21,Pro27,Pro34,His35]-h-amylin (peptide)
peptide: K([γGlu-C20 diacid])CNTATCATQRLAEFLRHSSPNFGAIPSSTNVGPHTY-NH2
modifications: disulfide 2-7
notes: as for B1
B6: N^ε1-[(4S)-4-carboxy-4-(19-carboxynonadecanoylamino)butanoyl]-[Glu14,Arg17,Pro21,Pro27,His35]-h-amylin (peptide)
peptide: K([γGlu-C20 diacid])CNTATCATQRLAEFLRHSSPNFGAIPSSTNVGSHTY-NH2
modifications: disulfide 2-7; N-terminus assumed
SMILES: CC[C@H](C)[C@H](NC(=O)[C@H](C)NC(=O)CNC(=O)[C@H](Cc1ccccc1)NC(=O)[C@H](CC(N)=O)NC(=O)[C@@H]1CCCN1C(=O)[C@H](CO)NC(=O)[C@H](CO)NC(=O)[C@H](Cc1c[nH]cn1)NC(=O)[C@H](CCCNC(=N)N)NC(=O)[C@H](CC(C)C)NC(=O)[C@H](Cc1ccccc1)NC(=O)[C@H](CCC(=O)O)NC(=O)[C@H](C)NC(=O)[C@H](CC(C)C)NC(=O)[C@H](CCCNC(=N)N)NC(=O)[C@H](CCC(N)=O)NC(=O)[C@@H](NC(=O)[C@H](C)NC(=O)[C@@H]1CSSC[C@H](NC(=O)[C@@H](N)CCCCNC(=O)CC[C@H](NC(=O)CCCCCCCCCCCCCCCCCCC(=O)O)C(=O)O)C(=O)N[C@@H](CC(N)=O)C(=O)N[C@@H]([C@@H](C)O)C(=O)N[C@@H](C)C(=O)N[C@@H]([C@@H](C)O)C(=O)N1)[C@@H](C)O)C(=O)N1CCC[C@H]1C(=O)N[C@@H](CO)C(=O)N[C@@H](CO)C(=O)N[C@H](C(=O)N[C@@H](CC(N)=O)C(=O)N[C@H](C(=O)NCC(=O)N[C@@H](CO)C(=O)N[C@@H](Cc1c[nH]cn1)C(=O)N[C@H](C(=O)N[C@@H](Cc1ccc(O)cc1)C(N)=O)[C@@H](C)O)C(C)C)[C@@H](C)O
notes: as for B1

Biological target: T1, human amylin receptor (Amylin 3(a) receptor: human calcitonin receptor co-expressed with RAMP-3) (human, UniProt P30988 25-474; O60896 24-148, limits assumed)
T1 construct: whole, on cells; Used as cell membranes prepared from the Amylin 3(a)/CRE-luc BHK cells (Assay V); the complex is called the human amylin receptor; also called hAmylin-R; hAmylinR
T1 sequence (looked up) 1: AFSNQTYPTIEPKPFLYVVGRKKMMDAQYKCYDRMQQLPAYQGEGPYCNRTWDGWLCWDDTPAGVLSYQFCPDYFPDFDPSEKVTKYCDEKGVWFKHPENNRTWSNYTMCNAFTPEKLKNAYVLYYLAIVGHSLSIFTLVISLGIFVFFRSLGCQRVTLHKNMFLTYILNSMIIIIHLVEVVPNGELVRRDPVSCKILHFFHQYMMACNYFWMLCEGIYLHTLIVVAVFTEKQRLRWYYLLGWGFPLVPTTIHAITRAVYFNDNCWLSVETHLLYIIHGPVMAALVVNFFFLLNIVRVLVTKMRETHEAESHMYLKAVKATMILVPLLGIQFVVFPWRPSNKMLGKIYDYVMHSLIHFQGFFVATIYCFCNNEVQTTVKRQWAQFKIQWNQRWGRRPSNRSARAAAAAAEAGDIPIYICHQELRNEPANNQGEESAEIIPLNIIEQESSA
T1 sequence (looked up) 2: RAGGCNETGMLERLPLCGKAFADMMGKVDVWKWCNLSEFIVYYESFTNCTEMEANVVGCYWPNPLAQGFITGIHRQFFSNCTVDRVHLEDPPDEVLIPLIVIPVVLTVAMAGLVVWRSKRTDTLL
Experiment: SPA competition binding, displacement of 125I-rat amylin from membranes of BHK cells with human calcitonin receptor + RAMP-3 (Assay V)
Experimental: The binding assay was performed using scintillation proximity assay (SPA) beads (RPNQ0001) from PerkinElmer and cell membranes from the Amylin 3(a)/CRE-luc cells (as described in Assay (II)) were used. Membranes were prepared in the following way; the cells were rinsed with PBS and incubated with Versene for approximately 5 min before harvesting. The cells were flushed with PBS and the cell-suspension was centrifuged for 5 min at 1000 rpm. Cells were homogenized (ultrathurrax) in a buffer containing 20 mM Na-HEPES and 10 mM EDTA (pH 7.4) and centrifuged at 20.000 rpm for 15 min. The resulting pellet was resuspended, homogenized and centrifuged (20.000 rpm, 15 min) in a buffer containing 20 mM Na-HEPES and 0.1 mM EDTA (pH 7.4, buffer 2). The resulting pellet was resuspended in buffer 2 and protein concentration was measured (BCA protein Assay, Pierce). The homogenate was kept cold during the whole procedure. The membranes were kept at −80° C. until use. The assay was performed in a 384 well Optiplate (PerkinElmer) in a total volume of 40 ul. Membranes were mixed with SPA beads. Final concentration of membranes 35 ng/μL final and SPA beads was 0.05 mg/well. Test-compounds were dissolved in DMSO and further diluted in assay buffer (50 mM Hepes, pH 7.4, 1 mM CaCl2, 5 mM MgCl₂, 0.1% OA and 0.02% Tween20). […] The final mixture was incubated with shaking at 400 rpm for 120 min at 25° C. prior to centrifugation (1500 rpm, 10 min). Samples were analyzed on TopCounter™ (Packard). The IC₅₀ was calculated using (one site binding competition analysis) GraphPad Prism5 as a measure of receptor affinity.

In order of falling IC50:
1. B6  992 pM
2. B3  387 pM
3. B1  232 pM
4. B5  179 pM
5. B4  163 pM
6. B2  82 pM

Reference: patent US20140087995A1 (published 2014)
